Results taken from the RNAGym collection of RNA variant scans (doi:10.7554/elife.80360).

B1: CPEB3 Ribozyme (parent)
chain: GGGGGCCACAGCAGAAGCGUUCACGUCGCGGCCCCUGUCAGAUUCUGGUGAAUCUGCGAAUUCUGCUGU

Variants of: B1
Test: self-cleavage, relative activity (ratio to wild type); higher = more cleavage; co-transcriptional

Compared with A23U U64C, C24U C45U is lower in self-cleavage: 0.905 for the first, 0.829 for the second.

Compared with G25C G37U, C24U A42C is higher in self-cleavage: 0.156 for the first, 0.673 for the second.

First: C24G C54U
Second: C24U U46G
The self-cleavage of the first is lower: 0.602 for the first, 0.879 for the second.

First: C24A C34U
Second: G25U C63G
The self-cleavage of the first is higher: 0.803 for the first, 0.175 for the second.

Going from C24U A40C to G25U U62G, the self-cleavage falls from 0.228 to 0.116.

Compared with G25U U62A, C24A G30C is higher in self-cleavage: 0.158 for the first, 0.159 for the second.

Going from C24G U38A to C24A G37U, the self-cleavage rises from 0.177 to 0.231.

First: C24G U64A
Second: C24A A40U
The self-cleavage of the first is lower: 0.325 for the first, 0.383 for the second.

Compared with C24U G28C, C24U G28U is higher in self-cleavage: 0.191 for the first, 0.214 for the second.

Going from C24U G28A to G25C C32U, the self-cleavage rises from 0.174 to 0.179.

Going from G25A C35A to U26A A42U, the self-cleavage rises from 0.21 to 0.863.

Compared with C24U C63U, C24U C63A is lower in self-cleavage: 0.719 for the first, 0.391 for the second.

Compared with C24U U55A, C24U U55G is lower in self-cleavage: 0.651 for the first, 0.367 for the second.

Going from C24U U55C to C24G G58U, the self-cleavage falls from 0.391 to 0.387.

Going from G25U U69A to C24U G50U, the self-cleavage rises from 0.136 to 0.852.

Going from G25A U44C to G25A C57G, the self-cleavage rises from 0.0881 to 0.129.

Compared with C24U G47C, C24G U55C is lower in self-cleavage: 0.915 for the first, 0.292 for the second.

Going from G25A C54U to U26A G65U, the self-cleavage rises from 0.248 to 0.466.

Going from U26A G65C to G25C G58U, the self-cleavage falls from 0.466 to 0.134.

Compared with G25C G58A, G25U A59G is lower in self-cleavage: 0.212 for the first, 0.174 for the second.

Going from A23U G58C to A23U G58U, the self-cleavage falls from 1.02 to 1.01.

Going from A23U G58A to C24A C63G, the self-cleavage falls from 1.02 to 0.392.

Compared with G25U C35U, C24G G41A is higher in self-cleavage: 0.139 for the first, 0.247 for the second.

First: C24G G41U
Second: U26A G68C
The self-cleavage of the first is lower: 0.207 for the first, 0.964 for the second.

Compared with U26A G68U, G25C G41U is lower in self-cleavage: 0.901 for the first, 0.144 for the second.

First: G25C C34U
Second: G25C U69G
The self-cleavage of the first is lower: 0.219 for the first, 0.309 for the second.

First: G25C U69A
Second: G25C U64G
The self-cleavage of the first is higher: 0.221 for the first, 0.155 for the second.

Compared with G25C U64C, C24G C39G is higher in self-cleavage: 0.181 for the first, 0.324 for the second.

Compared with C24G C39A, G25U G37U is lower in self-cleavage: 0.214 for the first, 0.103 for the second.

Compared with G25U G37A, A23U G28A is higher in self-cleavage: 0.156 for the first, 0.226 for the second.

First: C24G G47C
Second: C24U C35G
The self-cleavage of the first is higher: 0.502 for the first, 0.202 for the second.

First: C24U C35A
Second: U26A G48U
The self-cleavage of the first is lower: 0.17 for the first, 0.928 for the second.

Going from U26A G47C to G25U C39A, the self-cleavage falls from 0.891 to 0.137.

Going from C24G A40U to G25C U44G, the self-cleavage falls from 0.14 to 0.139.

Going from G25C U44C to G25A C32A, the self-cleavage rises from 0.144 to 0.22.

First: G25C U46C
Second: G25A G47U
The self-cleavage of the first is higher: 0.218 for the first, 0.198 for the second.

Compared with G25A G47C, G25A G28U is lower in self-cleavage: 0.217 for the first, 0.132 for the second.

Compared with G25A G28A, U26A C33A is higher in self-cleavage: 0.131 for the first, 0.682 for the second.

Going from U26A C33U to G25C U53A, the self-cleavage falls from 0.85 to 0.125.

Compared with C24G G31U, U26A G31U is higher in self-cleavage: 0.215 for the first, 0.27 for the second.

First: U26A G31C
Second: A23U U62G
The self-cleavage of the first is lower: 0.18 for the first, 0.894 for the second.

Compared with A23U U62C, G25U C34A is lower in self-cleavage: 0.885 for the first, 0.153 for the second.
